The experiment concerns the target toxin B (TcdB) from Clostridioides difficile VPI 10,463 (Clostridioides difficile VPI 10,463, UniProt P18177 1-2366). Nature of the experiment: co-sedimentation; in vitro precipitation assay: TcdB (50 ng, 2 ng/µl) with α-defensin-6 (6 µM) or Angie peptides (100 µM) in 25 µl PBS, 30 min at 37 °C; centrifuged 20 min, 14,000 rpm, 4 °C; supernatant and pellet immunoblotted for TcdB. As to conditions: both partners purified. Background: In western blotting, separated proteins are transferred to a membrane and probed.

Sequence of toxin B (TcdB) from Clostridioides difficile VPI 10,463 (P18177 whole entry): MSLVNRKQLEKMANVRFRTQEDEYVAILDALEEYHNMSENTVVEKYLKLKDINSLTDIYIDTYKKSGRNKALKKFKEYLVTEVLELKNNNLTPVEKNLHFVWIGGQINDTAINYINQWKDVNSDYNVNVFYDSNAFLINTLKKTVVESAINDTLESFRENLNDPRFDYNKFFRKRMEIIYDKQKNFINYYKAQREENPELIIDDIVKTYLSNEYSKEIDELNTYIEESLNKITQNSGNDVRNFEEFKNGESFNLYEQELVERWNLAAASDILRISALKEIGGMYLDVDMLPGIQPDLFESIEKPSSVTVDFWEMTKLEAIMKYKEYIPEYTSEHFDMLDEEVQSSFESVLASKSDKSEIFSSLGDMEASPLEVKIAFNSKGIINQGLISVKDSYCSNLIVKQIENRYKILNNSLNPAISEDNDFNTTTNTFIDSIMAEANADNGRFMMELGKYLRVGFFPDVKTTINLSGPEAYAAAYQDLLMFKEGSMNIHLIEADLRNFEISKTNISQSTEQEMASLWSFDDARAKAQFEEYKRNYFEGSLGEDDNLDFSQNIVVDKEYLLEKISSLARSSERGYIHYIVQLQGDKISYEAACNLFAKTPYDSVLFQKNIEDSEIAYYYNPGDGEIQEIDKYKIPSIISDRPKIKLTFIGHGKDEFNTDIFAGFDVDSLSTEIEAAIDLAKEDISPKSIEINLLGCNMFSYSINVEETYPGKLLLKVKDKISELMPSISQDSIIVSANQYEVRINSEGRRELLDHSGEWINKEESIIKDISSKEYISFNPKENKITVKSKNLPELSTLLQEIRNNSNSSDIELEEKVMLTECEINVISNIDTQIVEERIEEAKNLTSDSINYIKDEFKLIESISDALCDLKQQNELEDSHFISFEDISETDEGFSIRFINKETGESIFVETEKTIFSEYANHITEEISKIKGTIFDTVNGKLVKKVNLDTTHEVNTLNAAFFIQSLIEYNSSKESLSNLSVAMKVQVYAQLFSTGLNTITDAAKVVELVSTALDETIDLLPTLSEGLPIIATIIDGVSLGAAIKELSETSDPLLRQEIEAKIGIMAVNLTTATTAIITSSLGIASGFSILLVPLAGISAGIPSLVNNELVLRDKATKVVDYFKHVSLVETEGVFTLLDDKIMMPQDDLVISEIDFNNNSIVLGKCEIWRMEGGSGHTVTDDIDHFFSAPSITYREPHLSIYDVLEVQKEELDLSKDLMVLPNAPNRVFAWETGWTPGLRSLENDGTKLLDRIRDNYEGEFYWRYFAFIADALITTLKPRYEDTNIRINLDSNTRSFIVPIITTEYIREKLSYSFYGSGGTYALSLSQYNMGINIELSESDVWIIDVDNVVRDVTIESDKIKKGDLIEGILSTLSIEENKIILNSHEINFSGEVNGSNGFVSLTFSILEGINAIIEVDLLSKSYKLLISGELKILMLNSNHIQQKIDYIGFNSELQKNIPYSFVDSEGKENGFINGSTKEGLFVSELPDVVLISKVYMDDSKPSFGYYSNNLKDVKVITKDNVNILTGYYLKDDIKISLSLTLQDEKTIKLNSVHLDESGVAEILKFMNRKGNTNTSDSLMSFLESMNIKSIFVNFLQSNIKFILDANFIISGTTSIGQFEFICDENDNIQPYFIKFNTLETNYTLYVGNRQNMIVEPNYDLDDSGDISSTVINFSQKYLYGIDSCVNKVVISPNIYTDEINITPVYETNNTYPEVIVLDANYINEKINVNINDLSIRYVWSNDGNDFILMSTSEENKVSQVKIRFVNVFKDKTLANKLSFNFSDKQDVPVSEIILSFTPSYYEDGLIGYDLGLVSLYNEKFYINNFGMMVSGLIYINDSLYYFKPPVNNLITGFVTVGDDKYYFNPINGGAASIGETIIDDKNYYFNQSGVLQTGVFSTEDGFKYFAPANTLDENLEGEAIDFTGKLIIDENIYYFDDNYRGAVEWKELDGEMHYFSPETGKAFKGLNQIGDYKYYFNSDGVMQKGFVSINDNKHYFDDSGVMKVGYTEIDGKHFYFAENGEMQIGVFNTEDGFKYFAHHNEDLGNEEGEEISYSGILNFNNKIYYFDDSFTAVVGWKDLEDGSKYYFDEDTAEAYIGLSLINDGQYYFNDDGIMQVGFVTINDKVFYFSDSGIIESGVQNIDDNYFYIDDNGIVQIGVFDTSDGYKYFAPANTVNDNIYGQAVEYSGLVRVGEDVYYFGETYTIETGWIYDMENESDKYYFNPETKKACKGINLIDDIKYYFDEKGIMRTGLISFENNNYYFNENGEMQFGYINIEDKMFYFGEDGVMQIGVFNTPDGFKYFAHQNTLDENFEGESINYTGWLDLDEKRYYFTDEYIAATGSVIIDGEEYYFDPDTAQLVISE

For the molecule AFTCHCRRSCYSTEYSYGTCTVMGINHRFCCL (peptide, UniProt Q01524 69-100, looked up) [human peptide α-defensin-6], the binding result is on record as “binds”.

The values are drawn from PMC12209146 (Cellular and Molecular Life Sciences: CMLS, 2025).
